Changes are numbered by the printed parent chain. Values belong to the binder of their own block, whether it stands above or below them.
Assays:
[1] = biological target: T1, human protein C (PC) zymogen (human, UniProt P04070 43-197; P04070 200-461); assay: ELISA screen, PC-coated wells, OD450, n=2
T1 construct: Bought

[2] = biological target: T2, human APC-PPACK (active site-blocked APC) (human, UniProt P04070 43-461, active site bound by the tripeptide inhibitor Phe-Pro-Arg-chloromethylketone (PPACK)); assay: ELISA
T2 construct: Bought (Haematologic Technologies)

[3] = biological target: T1, human protein C (PC) zymogen; assay: ELISA
[4] = biological target: T1, human protein C (PC) zymogen; assay: ELISA screen, PC-coated wells, OD450, n=2 [Continued]

T2 sequence (P04070 other isoform, or with tags, fused parts or gaps): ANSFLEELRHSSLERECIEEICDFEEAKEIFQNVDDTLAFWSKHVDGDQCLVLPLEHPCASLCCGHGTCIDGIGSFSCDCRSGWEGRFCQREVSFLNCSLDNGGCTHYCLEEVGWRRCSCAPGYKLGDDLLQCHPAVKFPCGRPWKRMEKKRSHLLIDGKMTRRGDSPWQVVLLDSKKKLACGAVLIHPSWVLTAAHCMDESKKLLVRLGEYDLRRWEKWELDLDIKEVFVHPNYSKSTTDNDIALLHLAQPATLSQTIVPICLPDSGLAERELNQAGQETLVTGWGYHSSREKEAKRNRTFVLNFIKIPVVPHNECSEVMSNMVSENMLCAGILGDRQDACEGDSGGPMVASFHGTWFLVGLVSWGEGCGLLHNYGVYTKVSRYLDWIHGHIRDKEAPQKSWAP
T1 sequence (P04070 43-197, chain 1 of 2): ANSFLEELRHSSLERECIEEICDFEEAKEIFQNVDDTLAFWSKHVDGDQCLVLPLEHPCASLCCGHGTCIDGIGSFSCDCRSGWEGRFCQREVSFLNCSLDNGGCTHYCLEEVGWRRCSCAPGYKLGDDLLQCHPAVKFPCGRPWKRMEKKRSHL
T1 sequence (P04070 200-461, chain 2 of 2): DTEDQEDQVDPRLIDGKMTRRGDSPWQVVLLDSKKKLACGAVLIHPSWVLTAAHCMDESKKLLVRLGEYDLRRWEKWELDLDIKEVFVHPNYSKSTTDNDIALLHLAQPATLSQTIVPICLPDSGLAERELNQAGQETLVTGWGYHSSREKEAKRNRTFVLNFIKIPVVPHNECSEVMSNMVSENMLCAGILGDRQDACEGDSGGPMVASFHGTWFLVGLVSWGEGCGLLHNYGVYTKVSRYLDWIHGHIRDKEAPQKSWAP

B1: SR16983-R3-P3-A08 (VHH)
VHH: EVQLVESGGGLVQAGGSLRLSCAASGRTFVGTYVMGWFRQAPGKAREFVAASSRSTGNTVYLDSVKGRFTVSRDDAKNTLYLQMNSLKPEDTAVYYCAARASINYNAANWPYWGQGTQVTVSS
binding result [1]: no binding
binding result [2]: binds

B2: SR16983-R3-P4-G01 (VHH)
VHH: B1 VHH with E1Q, V2L, T32S, A45E, V71I, T79M, A99T, A107Y
binding result [3]: no binding
binding result [2]: binds

B5: SR16983-R3-P5-C09 (VHH)
VHH: QLQLVESGGGLVQPGGSLRLSCAASGFTFSTKWMYWVRQGPGKGLERVAAIDASGGSTYYADSVKGRFTISRDNSKNTLYLQMNSLESADTAVYYCARSEGGQFRGRGTQVTVSS
binding result [1]: no binding
binding result [2]: binds

B7: SR16983-R2-P5-A12 (VHH)
VHH: QVQLVESGGGLVEAGGSLRLSCAASGRTFSSGALGWFRQAPGKEREFVATIRWSDERKQYSEFVKGRFTISRDSAKNTVYLQMNNLQPEDTAVYYCRSTVGNVLYWGQGTQVTVSS
binding result [1]: no binding
binding result [2]: binds

B8: SR16983-R2-P4-E03 (VHH)
VHH: B7 VHH with E13Q
binding result [1]: no binding
binding result [2]: binds

B9: SR16983-R3-P3-E02 (VHH)
VHH: QLQLVESGGGLVQAGGSLRLSCVLSGNTFGRNVITWYRQPPGKQREFIAMITSSGSTRYADSVKGRFTMSRDTAKNTAFLQMSSLKVEDTAVYYCWTAIAGQGEYWGQGTQVTVSS
binding result [4]: no binding
binding result [2]: binds

B10: SR16983-R4-P1-A05 (VHH)
VHH: B9 VHH with Q1E, L2V, G16E, N27S, S53T, S56N, S84N, V87L
binding result [1]: no binding
binding result [2]: binds

B13: SR16983-R2-P3-B05 (VHH)
VHH: QLQLVESGGGLVQPGGSLRLSCAASGRTVGSYVMGWFRQAPGKEREFLAANSRSTGNTVYADSVKGRFTISRDDAKNTLYLQMNSLKPEDTAVYYCATRASINYNYANWPYWGQGTQVTVSS
binding result [1]: no binding
binding result [2]: binds

B14: SR16983-R3-P4-E06 (VHH)
VHH: B13 VHH with P14A, V33A, M34V, G35A, F47L, N51S, S71A, T98A
binding result [1]: no binding
binding result [2]: binds

B15: SR16983-R4-P1-C05 (VHH)
VHH: B13 VHH with P14A, V29F, E46A, L48V, A49G, N51A, N57T, A61L, T98A
binding result [1]: no binding
binding result [2]: binds

B16: SR16983-R2-P4-D07 (VHH)
VHH: B13 VHH with L2V, P14A, V29I, L48V, A49V, N51F, N57H, T58I, V59S, T98A
binding result [1]: no binding
binding result [2]: binds

B18: SR16983-R3P2D06 (VHH)
VHH: B13 VHH with F47L, N51S, T98A
binding result [4]: no binding
binding result [2]: binds

B19: SR16983-R3-P3-E04 (VHH)
VHH: B13 VHH with L2V, P14A, V29F, L48V, N51A, A61P, T98A
binding result [1]: no binding
binding result [2]: binds

B26: SR16983-R2P1C08 (VHH)
VHH: QVQLVESGGGLVQPGGSLRLSCAASGRTFSNYAMGWFRQAPGKERRFVAGISRDDTSTSYADSVKGRFTILRDRSKNTVDLQMNSLKPEDTAIYYCAAARGIYGEISRYTGDYDSWGQGTQVTVSS
binding result [1]: no binding
binding result [2]: binds

B27: SR16983-R2-P3-E05 (VHH)
VHH: EVQLVESGGGLVQAGGSLRLSCAASGLTASTYVMAWFRQAPGKERDFVSLIDWRGEPTYANSVKGRFTISRDNGKNTVFLQMNSLRPEDTALYYCAVRASPGYVASLYPYWGRGTQVTVSS
binding result [4]: no binding
binding result [2]: binds

B28: SR16983-R3-P5-A06 (VHH)
VHH: QLQLVESGGGLVQAGGSLRLSCVASGTTFTIEDIGWYRLAPGKQRELVAIISGGNTNYADSVKGRFTISRDNAKNTVYLQMNSLKPEDTAVYYCNGRTKATVKWGRGTQVTVSS
binding result [1]: no binding
binding result [2]: binds

B29: SR16983-R2-P5-D01 (VHH)
VHH: B28 VHH with A73T
binding result [4]: no binding
binding result [2]: binds

B30: SR16983-R4-P1-C12 (VHH)
VHH: QLQLVESGGGLVQAGGSLRLSCAASGSTFSINVFAWYRQGSGEQRELVAFIGRSGTARYGDSVKGRFSISRDNAKKTVYLQMDSLRPEDTAVYYCNLGDYWGQGTQVTVSS
binding result [4]: no binding
binding result [2]: binds

B31: SR16983-R2-P2-C04 (VHH)
VHH: QLQLVESGGGLVQAGGSLRLSCAASRTTFRINGVDWYRQVPGKQRELVATASSDGPTNYAESVKGRFTISRDNAKNTVYLQMNSLKPEDTAVYYCRIVLPSRIIWGQGTQVTVSS
binding result [1]: no binding
binding result [2]: binds

B32: SR16983-R2-P4-E06 (VHH)
VHH: QLQLVESGGDLVQAGGSLRLSCAASGFTLDDYAIGWFRQAPGKEREGVSCIASSDGSTYYADSVKGRFTISTDNAKNTVYLQMNSLKPEDTAVYYCARGGLLLPKPELFDSWGQGTQVTVSS
binding result [1]: no binding
binding result [2]: binds

Continued, values first:

binding result [1]: no binding
binding result [2]: binds
B3: SR16983-R3-P2-D01 (VHH)
VHH: EVQLVESGGGLVQAGGSLRLSCAASGFTFSTKWMYWVRQGPGKGLEWVSTIDASGGSTYYADSVKGRFTISRDNTEKKVYLQMNSLESADTAVYYCARSAGGQFRGRGTQVTVSS

binding result [1]: no binding
B4: SR16983-R3P2H10 (VHH)
VHH: B5 VHH with S54G, K76E, L79V, Q103L, S115A

binding result [1]: no binding
binding result [2]: binds
B6: SR16983-R3-P3-H05 (VHH)
VHH: B5 VHH with L2V, G16R, S54G, K76E, L79V, Q103L, S115A

binding result [1]: no binding
binding result [2]: binds
B11: SR16983-R3-P2-F07 (VHH)
VHH: QLQLVESGGGLVQAGGSLRLSCAASGTTFDMNSMGWYRQAPGFKRDLVATISIGGDTNYADSVKGRFTISRDNAKNTVYMQMNSLKPEDTAVYYCNAERIWPNRRSFWGQGTQVTVSS

binding result [1]: no binding
binding result [2]: binds
B12: SR16983-R2-P2-G01 (VHH)
VHH: EVQLVESGGGLVQAGESLRLSCVVSGSRFRISGMGWYRQAPEKQRELVAAITRGGSTNYSDSVKGRFTISSDNAKNTVYLQMNSLKPDDTDVYYCAATVLDIPTMSTDDYWGQGTQVTVSS

binding result [1]: no binding
binding result [2]: binds
B17: SR16983-R3-P5-F03 (VHH)
VHH: B13 VHH with L2V, P14A, S31T, V33A, M34I, L48V, N51F, A61P, T98A

binding result [1]: no binding
binding result [2]: binds
B20: SR16983-R2-P2-F02 (VHH)
VHH: QLQLVESGGGLVQAGGSLRLSCAASGTTFSFVYMGWYRQAPGNQRDLVARISSDGSTNYADSVKGRFTISRDNAKNTVYLQMNSLRPEDTARYYCFYNGHLNKWGQGTQVTVSS

binding result [1]: no binding
binding result [2]: binds
B21: SR16983-R2-P2-H04 (VHH)
VHH: B20 VHH with L2V, Y37F, R71G, R86K, Y94F, G99A

binding result [1]: no binding
binding result [2]: binds
B22: SR16983-R3-P2-G01 (VHH)
VHH: B20 VHH with T27S, V32N, D54G, S56I, R71G, R86K, H100Y, Q106R

binding result [1]: no binding
binding result [2]: binds
B23: SR16983-R2-P2-F07 (VHH)
VHH: B20 VHH with T27S, V32N, D54G, S56I, R71G, N76D, R86K, H100Y

binding result [4]: no binding
binding result [2]: binds
B24: SR16983-R3P2D02 (VHH)
VHH: QLQLVESGGGLVQPGGSLRLSCAASGFTLDGYAIGWFRQAPGKEREGVSSIATSDGSTYYADSVKGRFTISGDDAKNTVYLHMNSLKPEDTAVYYCARGGSLVLRPKYYDYWGQGTQVTVSS

binding result [4]: no binding
binding result [2]: binds
B25: SR16983-R2-P2-D01 (VHH)
VHH: QLQLVESGGGLVQAGGSLRLSCVASGRTFSTYAMGWFRQAPGKEREFVGAIRWDGGSTNYANSVKGRFTISRDNAKNTVYLQVNSLKPEDTAVYYCAARASINYNYANWPYWGRGTQVTVSS

binding result [1]: no binding
binding result [2]: binds
B33: SR16983-R3-P5-F04 (VHH)
VHH: B32 VHH with D10G, D110E, S111Y

Source: patent publication US20250163183A1 (COAGULANT THERAPEUTICS, published 2025)
